The record followed here is patent publication US7189837 (NEUROTECH S A, dated 2007).

Experiment [1] has as its target hTR-FcΔH (human transferrin receptor residues 1-97 fused to CH1 and hinge deleted human IgG1 heavy chain constant region), expressed on BHK cells (human). Description: cell ELISA on BHK-FcΔH cells, goat anti-human IgG Fc alkaline phosphatase conjugate 1:1000, PNPP substrate.
Experiment [2] has as its target T1, human FcγRI on interferon-γ-treated U937 cells (human, UniProt P12314 16-374).
T1 construct: whole, on cells; also called FcγR1; CD64
Description: inferred from Fc receptor-mediated superoxide production in U937 cells. How it is done:
To assess whether cell surface expression of reverse Fc was biologically active in terms of Fc receptor binding and complement fixation, Fc receptor-mediated superoxide production in the human monocyte-like cell line was examined. Superoxide was measured spectrophotometrically as a function of the cell's ability to reduce cytochrome c. Superoxide production was determined using the 96-well microtiter plate assay of Tao, et al., *J Leukoc Biol*, 58: 203–208 (1995). 25,000 cells/well of either BHK-WT (control), opsonized BHK cells, or BHK-reverse Fc clones were added to the assay plate containing either human monocyte-like U937 cells (ATCC, Rockville, Md.) pre treated with recombinant human interferon-γ (R&D Systems, Minneapolis, Minn.) or lavaged mouse peritoneal macrophages. The O_2-release was measured as the superoxide dismutase (SOD) inhibitable reduction of cytochrome c at 550 nm by using a ThermoMax Plate reader (Molecular Devices, Menlo Park, Calif.). The rate of O_2-production was monitored from time 0 to […] after stimulation.

T1 sequence (P12314 16-374): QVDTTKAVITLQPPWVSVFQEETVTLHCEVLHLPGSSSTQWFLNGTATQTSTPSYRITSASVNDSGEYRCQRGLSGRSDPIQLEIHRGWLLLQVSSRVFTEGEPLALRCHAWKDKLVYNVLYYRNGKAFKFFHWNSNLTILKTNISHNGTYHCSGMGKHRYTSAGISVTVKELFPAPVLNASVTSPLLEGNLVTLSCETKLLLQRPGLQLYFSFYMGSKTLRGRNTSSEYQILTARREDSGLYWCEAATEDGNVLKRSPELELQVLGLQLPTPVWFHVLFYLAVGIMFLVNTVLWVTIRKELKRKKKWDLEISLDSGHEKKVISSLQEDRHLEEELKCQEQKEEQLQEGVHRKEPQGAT

In experiment [1], “Goat anti-human IgG Fc alkaline phosphatase conjugate (Sigma) (antibody)” displayed a Cell Surface Fc (OD405) of 2.8 OD405.

B1: hTR-FcΔH (human transferrin receptor residues 1-97 fused to CH1 and hinge deleted human IgG1 heavy chain constant region), expressed on BHK cells (Fc fusion)
chain: MMDQARSAFSNLFGGEPLSYTRFSLARQVDGDNSHVEMKLAVDEEENADNNTKANVTKPKRCSGSICYGTIAVIVFFLIGFMIGYLGYCKGVEPKTEGSAPELLGGPSVFLFPPKPKDTLMISRTPEVTCVVVDVSHEDPEVKFNWYVDGVEVHNAKTKPREEQYNSTYRVVSVLTVLHQDWLNGKEYKCKVSNKALPAPIEKTISKAKGQPREPQVYTLPPSRDELTKNQVSLTCLVKGFYPSDIAVEWESNGQPENNYKTTPPVLDSDGSFFLYSKLTVDKSRWQQGNVFSCSVMHEALHNHYTQKSLSLSPGK
notes: also called BHK-FcΔH; BHK-FcΔH(3)
In the case of B1, in experiment [2], the binding result was “binds”.
